*1 amine or outer side, *2 acyl side, *3 side chain or, on linkers, in order; H or OH if unused. Bridges are numbered along the chain shown (N, C = ends). Primed or numbered codes have the meaning given here. [ ]: non-standard residue; d: D form. Phe(4-(2-acetylaminoethoxy))″ = 4-(2-acetylaminoethoxy)phenylalanine, CC(=O)NCCOc1ccc(C[C@H](N[*:1])C(=O)[*:2])cc1; 2Nal = N[C@@H](Cc1ccc2ccccc2c1)C(=O)O; AEF = NCCOc1ccc(C[C@H](N)C(=O)O)cc1; Pen = CC(C)(S)[C@H](N)C(=O)O; αMeK = C[C@](N)(CCCCN)C(=O)O; Abu = CC[C@H](N)C(=O)O; Dap = NC[C@H](N)C(=O)O; Aib = CC(C)(N)C(=O)O
T1: IL-23R on DB cells (human, UniProt Q5VWK5 24-629)
T1 sequence (looked up): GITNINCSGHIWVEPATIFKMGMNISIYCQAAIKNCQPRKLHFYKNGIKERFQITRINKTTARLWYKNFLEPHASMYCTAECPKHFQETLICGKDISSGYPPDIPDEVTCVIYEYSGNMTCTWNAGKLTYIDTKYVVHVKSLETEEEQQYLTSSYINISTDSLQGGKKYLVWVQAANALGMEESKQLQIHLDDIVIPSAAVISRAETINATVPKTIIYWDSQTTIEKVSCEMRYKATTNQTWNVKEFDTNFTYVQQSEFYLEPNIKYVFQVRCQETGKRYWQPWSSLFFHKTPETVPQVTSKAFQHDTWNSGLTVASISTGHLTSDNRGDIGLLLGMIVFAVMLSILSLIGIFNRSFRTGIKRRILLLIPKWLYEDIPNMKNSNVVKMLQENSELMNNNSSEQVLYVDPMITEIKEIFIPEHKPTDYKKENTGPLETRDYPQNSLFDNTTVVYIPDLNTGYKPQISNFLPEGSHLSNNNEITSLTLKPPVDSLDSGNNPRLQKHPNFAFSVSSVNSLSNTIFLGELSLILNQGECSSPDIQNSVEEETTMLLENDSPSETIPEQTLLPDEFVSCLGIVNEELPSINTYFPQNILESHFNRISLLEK

T2: IL23R_huFC (human, UniProt Q5VWK5 24-353)
T2 sequence (looked up): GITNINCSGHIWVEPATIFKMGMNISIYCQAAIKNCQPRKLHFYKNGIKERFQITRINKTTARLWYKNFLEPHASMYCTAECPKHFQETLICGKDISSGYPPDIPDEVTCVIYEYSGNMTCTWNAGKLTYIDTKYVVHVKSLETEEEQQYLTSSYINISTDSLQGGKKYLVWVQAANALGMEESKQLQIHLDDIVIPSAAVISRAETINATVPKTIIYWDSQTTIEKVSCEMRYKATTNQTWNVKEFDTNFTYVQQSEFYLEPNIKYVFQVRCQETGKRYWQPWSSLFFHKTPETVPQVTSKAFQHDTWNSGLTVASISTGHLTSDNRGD

T3: IL-23R on human cells (IL-23R-expressing DB cells; human NK cells) (human, UniProt Q5VWK5 24-629)
T3 sequence (looked up): T1 sequence (looked up)

B1: Ac-[Pen]-QTWQ-[Pen]-[2-Nal]-[2-Nal]-[α-MeLys]-ENG-NH2 (peptide)
peptide: Ac-[Pen]QTWQ[Pen][2Nal][2Nal][αMeK]ENG-NH2
modifications: disulfide 1-6
SMILES: CC(=O)N[C@@H]1C(=O)N[C@@H](CCC(N)=O)C(=O)N[C@@H]([C@@H](C)O)C(=O)N[C@@H](Cc2c[nH]c3ccccc23)C(=O)N[C@@H](CCC(N)=O)C(=O)N[C@H](C(=O)N[C@@H](Cc2ccc3ccccc3c2)C(=O)N[C@@H](Cc2ccc3ccccc3c2)C(=O)N[C@@](C)(CCCCN)C(=O)N[C@@H](CCC(=O)O)C(=O)N[C@@H](CC(N)=O)C(=O)NCC(N)=O)C(C)(C)SSC1(C)C
B2: Ac-E-[Pen]-QTWQ-[Pen]-[Phe[4-(2-aminoethoxy)]-[2-Nal]-[Aib]-[Lys(Ac)]-NN-NH2 (peptide)
peptide: Ac-E[Pen]QTWQ[Pen][AEF][2Nal][Aib]K(Ac)NN-NH2
modifications: disulfide 2-7
SMILES: CC(=O)NCCCC[C@H](NC(=O)C(C)(C)NC(=O)[C@H](Cc1ccc2ccccc2c1)NC(=O)[C@H](Cc1ccc(OCCN)cc1)NC(=O)[C@H]1NC(=O)[C@H](CCC(N)=O)NC(=O)[C@H](Cc2c[nH]c3ccccc23)NC(=O)[C@H]([C@@H](C)O)NC(=O)[C@H](CCC(N)=O)NC(=O)[C@@H](NC(=O)[C@H](CCC(=O)O)NC(C)=O)C(C)(C)SSC1(C)C)C(=O)N[C@@H](CC(N)=O)C(=O)N[C@@H](CC(N)=O)C(N)=O
B3: Ac-R-[Pen]-QTWQ-[Pen]-[Phe[4-(2-aminoethoxy)]-[2-Nal]-[Aib]-[Lys(Ac)]-NN-NH2 (peptide)
peptide: Ac-R[Pen]QTWQ[Pen][AEF][2Nal][Aib]K(Ac)NN-NH2
modifications: disulfide 2-7
SMILES: CC(=O)NCCCC[C@H](NC(=O)C(C)(C)NC(=O)[C@H](Cc1ccc2ccccc2c1)NC(=O)[C@H](Cc1ccc(OCCN)cc1)NC(=O)[C@H]1NC(=O)[C@H](CCC(N)=O)NC(=O)[C@H](Cc2c[nH]c3ccccc23)NC(=O)[C@H]([C@@H](C)O)NC(=O)[C@H](CCC(N)=O)NC(=O)[C@@H](NC(=O)[C@H](CCCNC(=N)N)NC(C)=O)C(C)(C)SSC1(C)C)C(=O)N[C@@H](CC(N)=O)C(=O)N[C@@H](CC(N)=O)C(N)=O
B4: Ac-(D)Asp-[Pen]-QTWQ-[Pen]-[Phe[4-(2-aminoethoxy)]-[2-Nal]-[Aib]-[Lys(Ac)]-NN-NH2 (peptide)
peptide: Ac-[dD][Pen]QTWQ[Pen][AEF][2Nal][Aib]K(Ac)NN-NH2
modifications: disulfide 2-7
SMILES: CC(=O)NCCCC[C@H](NC(=O)C(C)(C)NC(=O)[C@H](Cc1ccc2ccccc2c1)NC(=O)[C@H](Cc1ccc(OCCN)cc1)NC(=O)[C@H]1NC(=O)[C@H](CCC(N)=O)NC(=O)[C@H](Cc2c[nH]c3ccccc23)NC(=O)[C@H]([C@@H](C)O)NC(=O)[C@H](CCC(N)=O)NC(=O)[C@@H](NC(=O)[C@@H](CC(=O)O)NC(C)=O)C(C)(C)SSC1(C)C)C(=O)N[C@@H](CC(N)=O)C(=O)N[C@@H](CC(N)=O)C(N)=O

What was measured:
IL-23R on DB cells = target: T1, IL-23R on DB cells; assay: cell-based or functional assay
IL23R_huFC = target: T2, IL23R_huFC; assay: human ELISA vs IL-23
[1] = target: T3, IL-23R on human cells …; assay: cell-based or functional assay

pStat3 HTRF IC50 (IL-23R on DB cells) [nM]	other results	Binder
10 to 25		B1
< 10		XNTWQXFXXKNA (Ac; Pen-Pen disulfide; Phe(4-OMe); 2-Nal; Aib; Lys(Ac); βAla; NH2) [Ac-[Pen]-NTWQ-[Pen]-[Phe(4-OMe)]-[2-Nal]-[Aib]-[Lys(Ac)]-N-[βAla]-NH2]
< 10		Ac-[Pen]TTWQ[Pen][AEF][2Nal][Aib]K(Ac)NN-NH2 (disulfide 1-6 (inferred)) [Ac-[Pen]-TTWQ-[Pen]-[Phe[4-(2-aminoethoxy)]-[2-Nal]-[Aib]-[Lys(Ac)]-NN-NH2]
< 10		B2
< 10		B3
< 10		XNTWQXFXLKNA (Ac; Pen-Pen disulfide; Phe[4-(2-aminoethoxy)]; 2-Nal; hLeu; Lys(Ac); βAla; NH2) [Ac-[Pen]-NTWQ-[Pen]-[Phe[4-(2-aminoethoxy)]-[2-Nal]-[hLeu]-[Lys(Ac)]-N-[βAla]-NH2]
< 10		Ac-[Pen][Dap]TWQ[Pen][AEF][2Nal][αMeK]ENG-NH2 (disulfide 1-6 (inferred)) [Ac-[Pen]-[Dap]-TWQ-[Pen]-[Phe[4-(2-aminoethoxy)]-[2-Nal]-[α-MeLys]-ENG-NH2]
10 to 25		XQTWQXYXXENG (Ac; Pen-Pen disulfide; 2-Nal; α-MeOrn; NH2) [Ac-[Pen]-QTWQ-[Pen]-Y-[2-Nal]-[α-MeOrn]-ENG-NH2]
< 10		XNTWQXFXXKNA (Ac; Pen-Pen disulfide; Phe[4-(2-aminoethoxy)]; 2-Nal; Aib; Lys(Ac); NH2) [Ac-[Pen]-NTWQ-[Pen]-[Phe[4-(2-aminoethoxy)]-[2-Nal]-[Aib]-[Lys(Ac)]-NA-NH2]
< 10		XNTWQXFXXKNQ (Ac; Pen-Pen disulfide; Phe[4-(2-aminoethoxy)]; 2-Nal; Aib; Lys(Ac); NH2) [Ac-[Pen]-NTWQ-[Pen]-[Phe[4-(2-aminoethoxy)]-[2-Nal]-[Aib]-[Lys(Ac)]-NQ-NH2]
< 10		XQTWQXFXXKNN (Ac; Pen-Pen disulfide; Phe[4-(2-acetylaminoethoxy)]; 2-Nal; Aib; Lys(Ac); NH2) [Ac-[Pen]-QTWQ-[Pen]-[Phe[4-(2-acetylaminoethoxy)]-[2-Nal]-[Aib]-[Lys(Ac)]-NN-NH2]
< 10		XNTWQXFXXKNQ (Ac; Pen-Pen disulfide; Phe(4-OMe); 2-Nal; Aib; Lys(Ac); NH2) [Ac-[Pen]-NTWQ-[Pen]-[Phe(4-OMe)]-[2-Nal]-[Aib]-[Lys(Ac)]-NQ-NH2]
< 10		XQTWQXFXXKNN (Ac; Pen-Pen disulfide; Phe(4-OMe); 2-Nal; Aib; Lys(Ac); NH2) [Ac-[Pen]-QTWQ-[Pen]-[Phe(4-OMe)]-[2-Nal]-[Aib]-[Lys(Ac)]-NN-NH2]
< 10		Ac-[Pen][Dap](Ac)TWQ[Pen][Phe(4-(2-acetylaminoethoxy))″][2Nal][αMeK](Ac)ENG-NH2 (disulfide 1-6 (inferred)) [Ac-[Pen]-Dap(Ac)TWQ-[Pen]-[Phe[4-(2-acetylaminoethoxy)]-[2-Nal]-[α-MeLys(Ac)]-ENG-NH2]
< 10		XNTWQXFXXENN (Ac; Pen-Pen disulfide; Phe(4-OMe); 2-Nal; Aib; NH2) [Ac-[Pen]-NTWQ-[Pen]-[Phe(4-OMe)]-[2-Nal]-[Aib]-ENN-NH2]
< 10		XNTWQXFXXKNA (Ac; Pen-Pen disulfide; Phe[4-(2-aminoethoxy)]; 2-Nal; Aib; Lys(Ac); βAla; NH2) [Ac-[Pen]-NTWQ-[Pen]-[Phe[4-(2-aminoethoxy)]-[2-Nal]-[Aib]-[Lys(Ac)]-N-[βAla]-NH2]
< 10		XNTWQXFXXKNN (Ac; Pen-Pen disulfide; Phe[4-(2-aminoethoxy)]; 2-Nal; Aib; Lys(Ac); NH2) [Ac-[Pen]-NTWQ-[Pen]-[Phe[4-(2-aminoethoxy)]-[2-Nal]-[Aib]-[Lys(Ac)]-NN-NH2]
< 10		B4
< 10		XQTWQXFXXENN (Ac; Pen-Pen disulfide; Phe[4-(2-aminoethoxy)]; 2-Nal; Aib; NH2) [Ac-[Pen]-QTWQ-[Pen]-[Phe[4-(2-aminoethoxy)]-[2-Nal]-[Aib]-ENN-NH2]
< 10		XQTWQXFXXKNN (Ac; Pen-Pen disulfide; Phe[4-(2-aminoethoxy)]; 2-Nal; Aib; Lys(Ac); NH2) [Ac-[Pen]-QTWQ-[Pen]-[Phe[4-(2-aminoethoxy)]-[2-Nal]-Aib-[Lys(Ac)]-NN-NH2]
< 10		XQTWQXFXXENN (Ac; Pen-Pen disulfide; Phe(4-OMe); 2-Nal; Aib; NH2) [Ac-[Pen]-QTWQ-[Pen]-[Phe(4-OMe)]-[2-Nal]-[Aib]-ENN-NH2]
< 10		XQTWQXFXXENN (Ac; Pen-Pen disulfide; Phe[4-(2-acetylaminoethoxy)]; 2-Nal; Aib; NH2) [Ac-[Pen]-QTWQ-[Pen]-[Phe[4-(2-acetylaminoethoxy)]-[2-Nal]-[Aib]-ENN-NH2]
< 10		XNTWQXFXLKNA (Ac; Pen-Pen disulfide; Phe(4-OMe); 2-Nal; hLeu; Lys(Ac); βAla; NH2) [Ac-[Pen]-NTWQ-[Pen]-[Phe(4-OMe)]-[2-Nal]-[hLeu]-[Lys(Ac)]-N-[βAla]-NH2]
< 10		Ac-[Pen]TTWQ[Pen][AEF][2Nal][Aib]K(Ac)NQ-NH2 (disulfide 1-6 (inferred)) [Ac-[Pen]-TTWQ-[Pen]-[Phe[4-(2-aminoethoxy)]-[2-Nal]-[Aib]-[Lys(Ac)]-NQ-NH2]
10 to 25		XQTWQXFXLENA (Ac; Pen-Pen disulfide; Phe[4-(2-aminoethoxy)]; 2-Nal; hLeu; NH2) [Ac-[Pen]-QTWQ-[Pen]-[Phe[4-(2-aminoethoxy)]-[2-Nal]-[hLeu]-ENA-NH2]
< 10		XNTWQXFXXKNA (Ac; Pen-Pen disulfide; Phe(4-OMe); 2-Nal; Aib; Lys(Ac); NH2) [Ac-[Pen]-NTWQ-[Pen]-[Phe(4-OMe)]-[2-Nal]-[Aib]-[Lys(Ac)]-NA-NH2]
< 10		XNTWQXFXLENA (Ac; Pen-Pen disulfide; Phe[4-(2-aminoethoxy)]; 2-Nal; hLeu; NH2) [Ac-[Pen]-NTWQ-[Pen]-[Phe[4-(2-aminoethoxy)]-[2-Nal]-[hLeu]-ENA-NH2]
	IC50 (IL23R_huFC): < 10 nM; pStat3 HTRF IC50 [1]: < 10 nM	Ac-R[Abu]QTWQC[AEF][2Nal][αMeK]ENN-NH2 (thioether 2-7) [Ac-Arg-Cyclo-[[Abu]-QTWQC]-[Phe[4-(2-aminoethoxy)]]-[2-Nal]-[α-MeLys]-ENN-NH2]
< 10		XNTWQXFXXKNN (Ac; Pen-Pen disulfide; Phe(4-OMe); 2-Nal; Aib; Lys(Ac); NH2) [Ac-[Pen]-NTWQ-[Pen]-[Phe(4-OMe)]-[2-Nal]-[Aib]-[Lys(Ac)]-NN-NH2]

Source: US20190300590A1 (PROTAGONIST THERAPEUTICS, published 2019)
